In publication PMC6914362 (Nature, 2019):

How the values were obtained:
SEC [1] = target: the molecule itself; test: SEC
SEC [2] = target: the molecule itself; test: SEC; remark: listed apart in the source
native gel or EMSA = target: the molecule itself; test: native gel or EMSA

Row | Protein | stoichiometry N (SEC [2]) | other results
1 | SHMT1 wild type (enzyme, human, UniProt P34896 1-483, looked up) MTMPVNGAHKDADLWSSHDKMLAQPLKDSDVEVYNIIKKESNRQRVGLELIASENFASRAVLEALGSCLNNKYSEGYPGQRYYGGTEFIDELETLCQKRALQAYKLDPQCWGVNVQPYSGSPANFAVYTALVEPHGRIMGLDLPDGGHLTHGFMTDKKKISATSIFFESMPYKVNPDTGYINYDQLEENARLFHPKLIIAGTSCYSRNLEYARLRKIADENGAYLMADMAHISGLVAAGVVPSPFEHCHVVTTTTHKTLRGCRAGMIFYRKGVKSVDPKTGKEILYNLESLINSAVFPGLQGGPHNHAIAGVAVALKQAMTLEFKVYQHQVVANCRALSEALTELGYKIVTGGSDNHLILVDLRSKGTDGGRAEKVLEACSIACNKNTCPGDRSALRPSGLRLGTPALTSRGLLEKDFQKVAHFIHRGIELTLQIQSDTGVRATLKEFKERLAGDKYQAAVQALREEVESFASLFPLPGLPDF | – | stoichiometry N (SEC [1]): 4
2 | SHMT2ΔN (residues 18-504), dimeric (PLP-free) form (enzyme, human, UniProt P34897 18-504, looked up) QLVRMAIRAQHSNAAQTQTGEANRGWTGQESLSDSDPEMWELLQREKDRQCRGLELIASENFCSRAALEALGSCLNNKYSEGYPGKRYYGGAEVVDEIELLCQRRALEAFDLDPAQWGVNVQPYSGSPANLAVYTALLQPHDRIMGLDLPDGGHLTHGYMSDVKRISATSIFFESMPYKLNPKTGLIDYNQLALTARLFRPRLIIAGTSAYARLIDYARMREVCDEVKAHLLADMAHISGLVAAKVIPSPFKHADIVTTTTHKTLRGARSGLIFYRKGVKAVDPKTGREIPYTFEDRINFAVFPSLQGGPHNHAIAAVAVALKQACTPMFREYSLQVLKNARAMADALLERGYSLVSGGTDNHLVLVDLRPKGLDGARAERVLELVSITANKNTCPGDRSAITPGGLRLGAPALTSRQFREDDFRRVVDFIDEGVNIGLEVKSKTAKLQDFKSFLLKDSETSQRLANLRQRVEQFARAFPMPGFDEH | 2 | –
3 | SHMT2ΔN+A285T (enzyme, human, UniProt P34897 18-504, looked up) QLVRMAIRAQHSNAAQTQTGEANRGWTGQESLSDSDPEMWELLQREKDRQCRGLELIASENFCSRAALEALGSCLNNKYSEGYPGKRYYGGAEVVDEIELLCQRRALEAFDLDPAQWGVNVQPYSGSPANLAVYTALLQPHDRIMGLDLPDGGHLTHGYMSDVKRISATSIFFESMPYKLNPKTGLIDYNQLALTARLFRPRLIIAGTSAYARLIDYARMREVCDEVKAHLLADMAHISGLVAAKVIPSPFKHADIVTTTTHKTLRGTRSGLIFYRKGVKAVDPKTGREIPYTFEDRINFAVFPSLQGGPHNHAIAAVAVALKQACTPMFREYSLQVLKNARAMADALLERGYSLVSGGTDNHLVLVDLRPKGLDGARAERVLELVSITANKNTCPGDRSAITPGGLRLGAPALTSRQFREDDFRRVVDFIDEGVNIGLEVKSKTAKLQDFKSFLLKDSETSQRLANLRQRVEQFARAFPMPGFDEH | 2 | –
4 | SHMT2ΔN (residues 18-504), PLP-bound tetramer (enzyme, human, UniProt P34897 18-504, looked up, pyridoxal-5'-phosphate (PLP) bound, internal aldimine linkage; PLP acceptor Lys280) QLVRMAIRAQHSNAAQTQTGEANRGWTGQESLSDSDPEMWELLQREKDRQCRGLELIASENFCSRAALEALGSCLNNKYSEGYPGKRYYGGAEVVDEIELLCQRRALEAFDLDPAQWGVNVQPYSGSPANLAVYTALLQPHDRIMGLDLPDGGHLTHGYMSDVKRISATSIFFESMPYKLNPKTGLIDYNQLALTARLFRPRLIIAGTSAYARLIDYARMREVCDEVKAHLLADMAHISGLVAAKVIPSPFKHADIVTTTTHKTLRGARSGLIFYRKGVKAVDPKTGREIPYTFEDRINFAVFPSLQGGPHNHAIAAVAVALKQACTPMFREYSLQVLKNARAMADALLERGYSLVSGGTDNHLVLVDLRPKGLDGARAERVLELVSITANKNTCPGDRSAITPGGLRLGAPALTSRQFREDDFRRVVDFIDEGVNIGLEVKSKTAKLQDFKSFLLKDSETSQRLANLRQRVEQFARAFPMPGFDEH | 4 | –
5 | Flag-HA epitope-tagged SHMT2ΔN (MEFs) (enzyme, human, UniProt P34897 18-504, looked up) QLVRMAIRAQHSNAAQTQTGEANRGWTGQESLSDSDPEMWELLQREKDRQCRGLELIASENFCSRAALEALGSCLNNKYSEGYPGKRYYGGAEVVDEIELLCQRRALEAFDLDPAQWGVNVQPYSGSPANLAVYTALLQPHDRIMGLDLPDGGHLTHGYMSDVKRISATSIFFESMPYKLNPKTGLIDYNQLALTARLFRPRLIIAGTSAYARLIDYARMREVCDEVKAHLLADMAHISGLVAAKVIPSPFKHADIVTTTTHKTLRGARSGLIFYRKGVKAVDPKTGREIPYTFEDRINFAVFPSLQGGPHNHAIAAVAVALKQACTPMFREYSLQVLKNARAMADALLERGYSLVSGGTDNHLVLVDLRPKGLDGARAERVLELVSITANKNTCPGDRSAITPGGLRLGAPALTSRQFREDDFRRVVDFIDEGVNIGLEVKSKTAKLQDFKSFLLKDSETSQRLANLRQRVEQFARAFPMPGFDEH | – | stoichiometry N (native gel or EMSA): 2
